Assay results published in publication PMC2788865 (The Journal of Biological Chemistry, 2009).

Biological target: Lys^75-FL-calmodulin (FL-CaM) (human, UniProt P0DP23 1-149, 5-(4,6-dichlorotriazinyl)aminofluorescein (FL) on Lys75)
Assay: fluorescence polarisation

binding result: binds
B1: Ca^2+/calmodulin-dependent protein kinase IV (CaMKIV) (enzyme)
chain: MLKVTVPSCPSSPCSSVTSSTENLVPDYWIDGSKRDPLSDFFEVESELGRGATSIVYRCKQKGTQKPYALKVLKKTVDKKIVRTEIGVLLRLSHPNIIKLKEIFETPTEISLVLELVTGGELFDRIVEKGYYSERDAADAVKQILEAVAYLHENGIVHRDLKPENLLYATPAPDAPLKIADFGLSKIVEHQVLMKTVCGTPGYCAPEILRGCAYGPEVDMWSVGIITYILLCGFEPFYDERGDQFMFRRILNCEYYFISPWWDEVSLNAKDLVKKLIVLDPKKRLTTFQALQHPWVTGKAANFVHMDTAQKKLQEFNARRKLKAAVKAVVASSRLGSASSSHTNIQESNKASSEAQPAQDGKDKTDPLENKMQAGDHEAAKAAADETMKLQSEEVEEEEGVKEEEEEEEEEEETSRMVPQEPEDRLETDDQEMKRNSEETLKSVEEEMDPKAEEEAAAVGLGVPPQQDAILPEY
